In this experiment the target is human CCR5 (human, UniProt P51681 1-352). The experiment is described as follows: cell-based or functional assay.
human CCR5, sequence (P51681 whole entry): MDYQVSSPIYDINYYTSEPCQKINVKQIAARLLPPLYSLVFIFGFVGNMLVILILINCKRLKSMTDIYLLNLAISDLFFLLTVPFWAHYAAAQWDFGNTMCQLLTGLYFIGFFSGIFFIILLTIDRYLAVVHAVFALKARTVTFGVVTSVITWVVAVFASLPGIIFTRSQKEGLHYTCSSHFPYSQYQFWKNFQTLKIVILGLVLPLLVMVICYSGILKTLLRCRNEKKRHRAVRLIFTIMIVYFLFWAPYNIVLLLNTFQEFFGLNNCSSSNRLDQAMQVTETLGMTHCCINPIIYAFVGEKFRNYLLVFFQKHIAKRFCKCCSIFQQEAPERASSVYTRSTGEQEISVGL

B1: AA-2320 (antibody)
chain 1: EVKLVESGGGLVKPGGSLKLSCAASGFTFSTYAMSWVRQTPEKRLEWVASISTGDNTYYTDSVRGRFTISRDNARNILYLQMSSLRSEDTAMYFCTRGRGDRGDLFGYWGQGTLVTVSS
chain 2: GGGGSGGGGSEVKLVESGGGLVKPGGSLKLSCAASGFTFSTYAMSWVRQTPEKRLEWVASISTGDNTYYTDSVRGRFTISRDNARNILYLQMSSLRSEDTAMYFCTRGRGDRGDLFGYWGQGTLVTVSSGGGGSGGGGSGGGGSDIVMSQSPSSLAVSVGEKVTMSCKSSQSLLYRGNQMNYLAWYQQKPGQSPKLLIYWASTRESGVPDRFTGSGSGTEFTLTISSVKAEDLTVYYCQQYYTYPRTFGGGTKLEIKR
chain 3: DIVMSQSPSSLAVSVGEKVTMSCKSSQSLLYRGNQMNYLAWYQQKPGQSPKLLIYWASTRESGVPDRFTGSGSGTEFTLTISSVKAEDLTVYYCQQYYTYPRTFGGGTKLEIKR
B1: the “IC50, antiviral assay in PBMC (HIV-1 NLBal, p24 ELISA)” value was determined as 0.088 nM.

B2: AN-1000 (antibody, V domains shown)
VH: B1 chain 1
VL: B1 chain 3
As for B2, the “IC50, antiviral assay in PBMC (HIV-1 NLBal, p24 ELISA)” value was 0.988 nM.

The record behind these values is WO2010028798A1 (dated 2010).
